# Test results published in the RNAGym collection of RNA variant scans (doi:10.1093/molbev/msab373).
# B1: Azoarcus group I ribozyme (parent)
# chain: GUGCCUUGCGCCGGGAAACCACGCAAGGGAUGGUGUCAAAUUCGGCGAAACCUAAGCGCCCGCCCGGGCGUAUGGCAACGCCGAGCCAAGCUUCGGCGCCUGCGCCGAUGAAGGUGUAGAGACUAGACGGCACCCACCUAAGGCAAACGCUAUGGUGAAGGCAUAGUCCAGGGAGUGGCGAAAGUCACACAAACCGG
# Variants of: B1
# Assay: reverse-splicing fitness (ratio to wild type); higher = more active; in vitro selection; Mg2+ level not given
# How it was run: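 An in vitro group I ribozyme library with randomized positions was T7-transcribed and gel-purified. In triplicate, 10 pmol RNA in EPPS pH 7.5 was reacted with 50 pmoles of a 30-nt RNA substrate for 1 h at 37 °C across several added MgCl2 levels (1–48 mM), then stopped with EDTA. Products were reverse transcribed from a substrate-complementary primer, PCR-amplified and sequenced (HiSeq 4000). Fitness is a variant's read proportion after selection over that before, normalised to wild type.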
row,Variant,reverse-splicing fitness
1,C82A A120U A145U C150A C169G U176G,0.00136
2,C82A A120U A145U C150A C169G U176C,0.00266
3,C82A A120U A145U C150A C169G U176A,0.00237
4,C82A A145U C150G C169U U176A,0.00877
5,C82A A145U C150G C169U U176G,0.00595
6,C82A A145U C150G C169U U176C,0.0116
7,C82A A120U A145U U176A,0.036
8,C82A A120U A145U U176C,0.0582
9,C82A A120U A145U U176G,0.01
10,C82A A120U A145G C169G U176G,0.00125
11,C82A A120U A145G C169G U176C,0.00373
12,C82A A120U A145G C169G U176A,0.00295
13,C82A A120U A145G C169A U176G,0.00129
14,C82A A120U A145G C169A U176C,0.00257
15,C82A A120U A145G C169A U176A,0.00307
16,C82A A145U C150G C169U,0.00935
17,C82A A145U C150G C169A,0.00902
18,C82A A145U C150G C169G,0.00797
19,C82A A145C C150A C169A U176A,0.0113
20,C82A A145C C150A C169A U176C,0.00566
21,C82A A145C C150A C169A U176G,0.00593
22,C82A A120U A145U,0.148
23,C82A A145U C150U C169U U176G,0.00508
24,C82A A145U C150U C169U U176A,0.0118

row,Variant,reverse-splicing fitness
1,C82A A145U C150U C169U U176C,0.0131
2,C82A A120U A145U C150U C169G,0.00375
3,C82A A120U A145U C150U C169A,0.00226
4,C82A A120U A145U C150U C169U,0.00442
5,C82A A120U C150G C169U,0.00543
6,C82A A120U C150G C169A,0.00708
7,C82A A120U C150G C169G,0.00634
8,C82A A120U A145G C150U C169G U176G,0.00214
9,C82A A120U A145G C150U C169G U176C,0.0042
10,C82A A120U A145G C150U C169G U176A,0.00591
11,C82A A120U A145U C150G C169A U176G,0.00201
12,C82A A120U A145U C150G C169A U176C,0.00214
13,C82A A120U A145U C150G C169A U176A,0.00324
14,C82A A120U A145G C150U U176C,0.0478
15,C82A A120U A145G C150U U176G,0.00635
16,C82A A120U A145G C150U U176A,0.0246
17,C82A A145U C150A C169G,0.00813
18,C82A A145U C150A C169A,0.00847
19,C82A A145U C150A C169U,0.00955
20,C82A A145U C150A C169A U176A,0.0129
21,C82A A145U C150A C169A U176G,0.0053
22,C82A A145U C150A C169A U176C,0.0105
23,C82A A145C U176A,0.346
24,C82A A145C U176G,0.129

row,Variant,reverse-splicing fitness
1,C82A A145C U176C,0.44
2,C82A A145U C150U C169G U176A,0.0124
3,C82A A145U C150U C169G U176C,0.013
4,C82A A145U C150U C169G U176G,0.00539
5,C82A A145C C169A U176G,0.00487
6,C82A A145C C169A U176C,0.00644
7,C82A A145C C169A U176A,0.0087
8,C82A A120U C150A C169A U176C,0.00234
9,C82A A120U C150A C169A U176G,0.0024
10,C82A A120U C150A C169A U176A,0.00388
11,C82A A120U A145U C150A C169A U176A,0.0022
12,C82A A120U A145U C150A C169A U176C,0.00188
13,C82A A120U A145U C150A C169A U176G,0.00186
14,C82A A145U C150A,0.0549
15,C82A A145U C150U,0.449
16,C82A A145U C150G,0.0675
17,C82A A120U A145G U176A,0.0348
18,C82A A120U A145G U176G,0.0073
19,C82A A120U A145G U176C,0.0599
20,C82A A145C C150U U176A,0.101
21,C82A A145C C150U U176C,0.113
22,C82A A145C C150U U176G,0.0335
23,C82A A145G C150A C169A,0.0108
24,C82A A145G C150A C169U,0.0112

row,Variant,reverse-splicing fitness
1,C82A A145G C150A C169G,0.00939
2,C82A A145U C150G U176C,0.0521
3,C82A A145U C150G U176G,0.0081
4,C82A A145U C150G U176A,0.0365
5,C82A A145C C150A C169G U176A,0.0232
6,C82A A145C C150A C169G U176G,0.00671
7,C82A A145C C150A C169G U176C,0.0122
8,C82A A120U C150G,0.0131
9,C82A A120U C150A,0.016
10,C82A A120U C150U,0.0723
11,C82A A145G C150G C169U U176C,0.0136
12,C82A A145G C150G C169U U176G,0.00762
13,C82A A145G C150G C169U U176A,0.0117
14,C82A A120U A145U C150A C169A,0.00213
15,C82A A120U A145U C150A C169U,0.00267
16,C82A A120U A145U C150A C169G,0.00217
17,C82A A120U C150G U176G,0.00281
18,C82A A120U C150G U176A,0.00566
19,C82A A120U C150G U176C,0.00779
20,C82A A120U A145U C169A U176C,0.00182
21,C82A A120U A145U C169A U176A,0.00216
22,C82A A120U A145U C169A U176G,0.00177
23,C82A A145U C150G C169G U176C,0.00607
24,C82A A145U C150G C169G U176A,0.00926

row,Variant,reverse-splicing fitness
1,C82A A145U C150G C169G U176G,0.0053
2,C82A A120U C150U C169U U176C,0.00368
3,C82A A120U C150U C169U U176G,0.00199
4,C82A A120U C150U C169U U176A,0.00458
5,C82A A145G U176G,0.113
6,C82A A145G U176C,0.488
7,C82A A145G U176A,0.387
8,C82A A145C C150G U176C,0.0535
9,C82A A145C C150G U176G,0.00808
10,C82A A145C C150G U176A,0.0383
11,C82A A145G C150U U176C,0.363
12,C82A A145G C150U U176A,0.287
13,C82A A145G C150U U176G,0.0838
14,C82A A145U C150G C169A U176C,0.00974
15,C82A A145U C150G C169A U176G,0.00583
16,C82A A145U C150G C169A U176A,0.0118
17,C82A A120U C150A U176G,0.00257
18,C82A A120U C150A U176A,0.00729
19,C82A A120U C150A U176C,0.00899
20,C82A A120U C150A C169U,0.00372
21,C82A A120U C150A C169G,0.00417
22,C82A A120U C150A C169A,0.0042
23,C82A A145C C150A U176G,0.0123
24,C82A A145C C150A U176C,0.0306

row,Variant,reverse-splicing fitness
1,C82A A145C C150A U176A,0.0316
2,C82A A145U C150U U176A,0.273
3,C82A A145U C150U U176C,0.324
4,C82A A145U C150U U176G,0.0823
5,C82A A120U A145U C150A U176C,0.0092
6,C82A A120U A145U C150A U176G,0.00276
7,C82A A120U A145U C150A U176A,0.00611
8,C82A A145C C150G C169G U176C,0.0067
9,C82A A145C C150G C169G U176G,0.00508
10,C82A A145C C150G C169G U176A,0.00895
11,C82A A145G C150U C169A U176A,0.0161
12,C82A A145G C150U C169A U176C,0.0166
13,C82A A145G C150U C169A U176G,0.00665
14,C82A A145G C150U C169U U176A,0.0129
15,C82A A145G C150U C169U U176C,0.0136
16,C82A A145G C150U C169U U176G,0.00555
17,C82A A145U C150U C169G,0.00961
18,C82A A145U C150U C169U,0.0127
19,C82A A145U C150U C169A,0.00956
20,C82A A145C C169G U176A,0.0247
21,C82A A145C C169G U176G,0.00402
22,C82A A145C C169G U176C,0.0138
23,C82A A145U C150U C169A U176G,0.00602
24,C82A A145U C150U C169A U176A,0.0121

row,Variant,reverse-splicing fitness
1,C82A A145U C150U C169A U176C,0.00936
2,C82A A145C C150U C169G U176G,0.00628
3,C82A A145C C150U C169G U176C,0.0113
4,C82A A145C C150U C169G U176A,0.0196
5,C82A A145G C169U,0.0161
6,C82A A145G C169G,0.0111
7,C82A A145G C169A,0.0112
8,C82A A120U A145U C150U C169A U176A,0.00275
9,C82A A120U A145U C150U C169A U176C,0.00272
10,C82A A120U A145U C150U C169A U176G,0.00171
11,C82A A120U C150G C169U U176A,0.00325
12,C82A A120U C150G C169U U176G,0.00296
13,C82A A120U C150G C169U U176C,0.00369
14,C82A A145G C169A U176A,0.0185
15,C82A A145G C169A U176G,0.00573
16,C82A A145G C169A U176C,0.0322
17,C82A A145G C169U U176G,0.00459
18,C82A A145G C169U U176A,0.0146
19,C82A A145G C169U U176C,0.0143
20,C82A A145C C150A C169G,0.00755
21,C82A A145C C150A C169U,0.00913
22,C82A A145C C150A C169A,0.00702
23,C82A A145G C150A C169A U176G,0.00695
